The record followed here is PMC2229597.

The target in experiment [1] is CNGA2 mutant channel 2-D316C (UniProt Q00195).
The target in experiment [2] is CNGA2 mutant channel 2-Y321C modified with MTSES (UniProt Q00195).
Experiment [3] addresses CNGA2 mutant channel 2-Y321C modified with MTSET (UniProt Q00195).
For experiment [4], the target named is CNGA2 mutant channel 2-D316N (UniProt Q00195).
For experiment [5], the target named is CNGA2 mutant channel 2-Y321R (UniProt Q00195).
Experiment [6] addresses CNGA3 double mutant channel 3-N361D/R366Y (UniProt Q29441).
The target in experiment [7] is CNGA3 mutant channel 3-N361D (UniProt Q29441).
The target in experiment [8] is CNGA3 mutant channel 3-R366Y (UniProt Q29441).
Experiment [9] deals with CNGA2 mutant channel 2-E325K (UniProt Q00195). Put plainly: patch-clamp electrophysiology. A general note: Patch clamp records ionic current or voltage across a cell membrane.
Experiment [10] addresses CNGA2 mutant channel 2-S301F (UniProt Q00195). Nature of the experiment: patch-clamp electrophysiology.
Experiment [11] has as its target CNGA2 mutant channel 2-T308S (UniProt Q00195). Put plainly: patch-clamp electrophysiology.
Experiment [12] has as its target heteromeric CNG channel containing CNGA2 and CNGA4 (UniProt Q00195). Nature of the experiment: patch-clamp electrophysiology.
Experiment [13] has as its target homomeric CNG channel composed of olfactory CNGA2 (UniProt Q00195). Nature of the experiment: patch-clamp electrophysiology.
Experiment [14] has the same target. Nature of the experiment: patch-clamp electrophysiology. This is another data set of the same source.
For experiment [15] the target is unchanged. Nature of the experiment: patch-clamp electrophysiology. This is another data set of the same source.

As a reminder, the Ki is the dissociation constant of the complex between target and ligand, obtained from inhibition or displacement. A high value points to lower affinity. As a reminder, the Kd is a measure of binding affinity in units of concentration. Low readings indicate higher affinity, high ones lower affinity.

Like-named read-outs stand apart in the source and are kept apart here.

In the case of Pseudechetoxin (natural protein), the block of current by 500 nM PsTx, outside-out patches from oocytes in experiment [1] worked out at 33%. The substance also gave a block of current by 500 nM PsTx after modification of the patch with MTSES in [2] of 93%. In experiment [3], this substance came in with a block of current by 500 nM PsTx after modification of the patch with MTSET of 81%. In addition, the inhibition of current by 500 nM PsTx at −60 mV, outside-out patches from oocytes in experiment [4] and in experiment [5] was less than 5% throughout. In experiment [6], this substance registered an inhibition of current by 500 nM PsTx, outside-out patches from oocytes (n = 4) of 84%. Also, the inhibition of current by 500 nM PsTx, outside-out patches from oocytes (n = 9) in experiment [7] was found to be 15%. Besides, the inhibition of current by 500 nM PsTx, outside-out patches from oocytes in experiment [8] was 2%. Besides, the Ki worked out at 0.123 µM in experiment [9]; 0.016 µM in experiment [10]; 0.016 µM in experiment [11]; 0.032 µM in experiment [13]; 0.024 µM in experiment [14]; 0.18 µM in [15]. The substance further showed a Kd in experiment [12] of 0.1 µM. This substance also had a time constant of wash-off (dissociation) in experiment [13] of 67 s.
